From article PMC2670943 (Journal of molecular biology, 2009)
Where two headings read alike, the source gives them in different places.

What was measured:
crystal structure [1] = target: the molecule itself; assay: crystal structure
crystal structure [2] = target: the molecule itself; assay: crystal structure; remark: listed apart in the source
crystal structure [3] = target: the molecule itself; assay: crystal structure; remark: listed apart in the source
[4] = target: T1, human GRASP55 full length (residues 1–452) (human, UniProt Q9H8Y8-1 1-452); assay: AUC
[5] = target: T2, human GRASP55 N-terminal domain (residues 1–263) (human, UniProt Q9H8Y8-1 1-263); assay: AUC
[6] = target: T1, human GRASP55 full length (residues …); assay: SPR
[7] = target: T2, human GRASP55 N-terminal domain …; assay: SPR

B1: human KCTD5 N-module (residues 40–145) (domain or fragment)
chain: not shown
For B1, the “stoichiometry N” value (crystal structure [1]) was 5 subunits.

B2: human KCTD5 residues 34–234, seleno-methionine labeled (domain or fragment, UniProt Q9NXV2 34-234, looked up)
chain: ALAQRPGSVSKWVRLNVGGTYFLTTRQTLCRDPKSFLYRLCQADPDLDSDKDETGAYLIDRDPTYFGPVLNYLRHGKLVINKDLAEEGVLEEAEFYNITSLIKLVKDKIRERDSKTSQVPVKHVYRVLQCQEEELTQMVSTMSDGWKFEQLVSIGSSYNYGNEDQAEFLCVVSKELHNTPYGTASEPSEKAKILQERGSRM
modifications: seleno-methionine labeled (two seleno-methionine residues, M171 and M175, in the C-terminal domain)
In the case of B2, the “stoichiometry N” value (crystal structure [2]) is reported as 5 subunits.

B3: human KCTD5 residues 34–234 ("full length" construct for structural and binding analysis), native (domain or fragment, UniProt Q9NXV2 34-234, looked up)
chain: ALAQRPGSVSKWVRLNVGGTYFLTTRQTLCRDPKSFLYRLCQADPDLDSDKDETGAYLIDRDPTYFGPVLNYLRHGKLVINKDLAEEGVLEEAEFYNITSLIKLVKDKIRERDSKTSQVPVKHVYRVLQCQEEELTQMVSTMSDGWKFEQLVSIGSSYNYGNEDQAEFLCVVSKELHNTPYGTASEPSEKAKILQERGSRM
With B3 the “stoichiometry N” value (crystal structure [3]) was 5 subunits, the Kd [4] was 1.41 ± 0.26 µM and the Kd [5] was 8.26 ± 1.6 µM. The koff [6] was 0.00103 s⁻¹, the kon [6] was 870 M⁻¹ s⁻¹ and the koff [7] was 0.00223 s⁻¹. The kon [7] was 2590 M⁻¹ s⁻¹.
